PMC6800875, “Codon harmonization reduces amino acid misincorporation in bacterially expressed P. falciparum proteins and improves their immunogenicity” (AMB Express, 2019)

Tests used:
[1] = target: the molecule itself; experiment: SEC; calibrated Superdex G-200 column, PBS pH 7.4, 0.5 mL/min, 4 °C; three standards (66, 29, 12.4 kDa); oligomer size estimated from the elution volume
[2] = target: the molecule itself; experiment: SDS-PAGE with western blot (band that resists denaturation); purified protein, untreated or incubated at 37 °C or 65 °C for 1, 4 and 24 h, on 4-20% Tris-glycine SDS-PAGE; blots probed with anti-His mAb and mAb 3D11.D4

B1: histidine tag-free CH-PfCelTOS (natural protein)
chain: GTFRGNNGHNSSSSLYNGSQFIEQLNNSFTSAFLESQSMNKIGDDLAETISNELVSVLQKNSPTFLESSFDIKSEVKKHAKSMLKELIKVGLPSFENLVAENVKPPKVDPATYGIIVPVLTSLFNKVETAVGAKVSDEIWNYNSPDVSESEESLSDDFFD
notes: two non-native amino acid residues introduced by cloning; the chain is 161 residues long, so one more residue stands before them; begins at F R G and holds 158 PfCelTOS residues; natural residue numbering; Made from the CH-PfCelTOS clone by replacing the His-tag linker; this is surmised; also called His-tag free PfCelTOS; Histidine tag-free PfCelTOS; source: E. coli, purified (Q-Sepharose twice, …)
- stoichiometry N [1]: ~4

B2: N-PfCelTOS (P. falciparum cell-traversal protein for ookinetes and sporozoites, expressed from the native codon sequence) (natural protein)
chain: FRGNNGHNSSSSLYNGSQFIEQLNNSFTSAFLESQSMNKIGDDLAETISNELVSVLQKNSPTFLESSFDIKSEVKKHAKSMLKELIKVGLPSFENLVAENVKPPKVDPATYGIIVPVLTSLFNKVETAVGAKVSDEIWNYNSPDVSESEESLSDDFFD
notes: begins at F R G and holds 158 PfCelTOS residues; 174 residues in all with the 16 amino acid linker; natural residue numbering; also called N-protein; source: E. coli B834 (DE3), purified (Ni-NTA, Q-Sepharose); not shown: His6 (within a 16 amino acid linker), N-terminal, kept
- stoichiometry N [2]: ~2
- stoichiometry N [1]: ~3

B3: CH-PfCelTOS (P. falciparum cell-traversal protein for ookinetes and sporozoites, expressed from the codon harmonized sequence) (natural protein, UniProt Q8I5P1 25-182, looked up)
chain: FRGNNGHNSSSSLYNGSQFIEQLNNSFTSAFLESQSMNKIGDDLAETISNELVSVLQKNSPTFLESSFDIKSEVKKHAKSMLKELIKVGLPSFENLVAENVKPPKVDPATYGIIVPVLTSLFNKVETAVGAKVSDEIWNYNSPDVSESEESLSDDFFD
notes: begins at F R G and holds 158 PfCelTOS residues; 174 residues in all with the 16 amino acid linker; natural residue numbering; also called CH-protein; source: E. coli B834 (DE3), purified (Ni-NTA, Q-Sepharose); not shown: His6 (within a 16 amino acid linker), N-terminal, kept
- stoichiometry N [2]: ~2
- stoichiometry N [1]: ~4
